Measured values published in patent US10081665B2, “Peptides and combination of peptides for use in immunotherapy against various tumors” (immatics biotechnologies GmbH, priority 2015, dated 2018).

Target: HLA-A*02:01 (Homo sapiens, UniProt P04439, D140Y/D185E/D98H/E176V/E277Q/G131W/G231S/I119V/I121R/I166T/I218V/L300P/L318F/N151K/N90K/P208A/P217A/Q86G/Q94H/R138H/R169H/T345S)
Assay: MHC binding assay (UV-ligand exchange, beta2m ELISA)
Details: binding to HLA-A*02:01, β2m ELISA
Description: Candidate peptides for T cell based therapies according to the present invention were further tested for their MHC binding capacity (affinity). The individual peptide-MHC complexes were produced by UV-ligand exchange, where a UV-sensitive peptide is cleaved upon UV-irradiation, and exchanged with the peptide of interest as analyzed. Only peptide candidates that can effectively bind and stabilize the peptide-receptive MHC molecules prevent dissociation of the MHC complexes. To determine the yield of the exchange reaction, an ELISA was performed based on the detection of the light chain (β2m) of stabilized MHC complexes. The assay was performed as generally described in Rodenko et al. (Rodenko et al., 2006).
96 well MAXISorp plates (NUNC) were coated over night with 2 ug/ml streptavidin in PBS at room temperature, washed 4× and blocked for 1 h at 37° C. in 2% BSA containing blocking buffer. Refolded HLA-A*02:01/MLA-001 monomers served as standards, covering the range of 15-500 ng/ml. Peptide-MHC monomers of the UV-exchange reaction were diluted 100 fold in blocking buffer. Samples were incubated for 1 h at 37° C., washed four times, incubated with 2 ug/ml HRP conjugated anti-82m for 1 h at 37° C., washed again and detected with TMB solution that is stopped with […]. Absorption was measured at 450 nm. Candidate peptides that show a high exchange yield (preferably higher than 50%, most preferred higher than 75%) are generally preferred for a generation and production of antibodies or fragments thereof, and/or T cell receptors or fragments thereof, as they show sufficient avidity to the MHC molecules and prevent dissociation of the MHC complexes.

Row | Peptide exchange (MHC class I binding score, peptide exchange yield) | Substance
1 | +++ (≥50 = +++) | 45 (FLPVSVVYV; listed as Homo sapiens) [compound 45]
2 | +++ (≥50 = +++) | 55 (HLFDKIIKI; listed as Homo sapiens) [compound 55]
3 | +++ (≥50 = +++) | 60 (YLFSQGLQGL; listed as Homo sapiens) [compound 60]
4 | +++ (≥50 = +++) | 61 (ALYPKEITL; listed as Homo sapiens) [compound 61]
5 | +++ (≥50 = +++) | 62 (SLVENIHVL; listed as Homo sapiens) [compound 62]
6 | +++ (≥50 = +++) | 68 (QLMNLIRSV; listed as Homo sapiens) [compound 68]
7 | ++ (≥20% = ++) | 69 (LKVLKADVVL; listed as Homo sapiens) [compound 69]
8 | ++ (≥20% = ++) | 71 (HMSGKLTNV; listed as Homo sapiens) [compound 71]
9 | ++ (≥20% = ++) | 72 (VLSTRVTNV; listed as Homo sapiens) [compound 72]
10 | ++ (≥20% = ++) | 74 (GLAFLPASV; listed as Homo sapiens) [compound 74]
11 | +++ (≥50 = +++) | 76 (FTAEFLEKV; listed as Homo sapiens) [compound 76]
12 | ++ (≥20% = ++) | 79 (TVLEEIGNRV; listed as Homo sapiens) [compound 79]
13 | ++ (≥20% = ++) | 85 (KLLDKPEQFL; listed as Homo sapiens) [compound 85]
14 | +++ (≥50 = +++) | 87 (KLLSLLEEA; listed as Homo sapiens) [compound 87]
15 | +++ (≥50 = +++) | 88 (LLLPLELSLA; listed as Homo sapiens) [compound 88]
16 | ++ (≥20% = ++) | 90 (AILNVDEKNQV; listed as Homo sapiens) [compound 90]
17 | ++ (≥20% = ++) | 91 (LLPSIFLMV; listed as Homo sapiens) [compound 91]
18 | ++ (≥20% = ++) | 93 (RLYGYFHDA; listed as Homo sapiens) [compound 93]
19 | +++ (≥50 = +++) | 94 (YLDEVAFML; listed as Homo sapiens) [compound 94]
20 | +++ (≥50 = +++) | 95 (KLIDEDEPLFL; listed as Homo sapiens) [compound 95]
21 | ++ (≥20% = ++) | 96 (ALDTTRHEL; listed as Homo sapiens) [compound 96]
22 | +++ (≥50 = +++) | 98 (FVQEKIPEL; listed as Homo sapiens) [compound 98]
23 | ++ (≥20% = ++) | 103 (YLADTVQKL; listed as Homo sapiens) [compound 103]
24 | ++ (≥20% = ++) | 105 (AMLASQTEA; listed as Homo sapiens) [compound 105]
25 | ++ (≥20% = ++) | 106 (VLLGSVVIFA; listed as Homo sapiens) [compound 106]
26 | +++ (≥50 = +++) | 109 (ILGSFELQL; listed as Homo sapiens) [compound 109]

More lines, now with the values behind:

Row | Substance | Peptide exchange (MHC class I binding score, peptide exchange yield)
27 | 47 (GLNGFNVLL; listed as Homo sapiens) [compound 47] | +++ (≥50 = +++)
28 | 48 (KISDFGLATV; listed as Homo sapiens) [compound 48] | +++ (≥50 = +++)
29 | 49 (KLIGNIHGNEV; listed as Homo sapiens) [compound 49] | ++ (≥20% = ++)
30 | 51 (LDSEALLTL; listed as Homo sapiens) [compound 51] | ++ (≥20% = ++)
31 | 52 (TIGIPFPNV; listed as Homo sapiens) [compound 52] | ++ (≥20% = ++)
32 | 53 (AQHLSTLLL; listed as Homo sapiens) [compound 53] | + (≥10% = +)
33 | 54 (YLVPGLVAA; listed as Homo sapiens) [compound 54] | +++ (≥50 = +++)
34 | 57 (TLYPGRFDYV; listed as Homo sapiens) [compound 57] | ++ (≥20% = ++)
35 | 58 (HLLGEGAFAQV; listed as Homo sapiens) [compound 58] | +++ (≥50 = +++)
36 | 59 (ALADGIKSFLL; listed as Homo sapiens) [compound 59] | +++ (≥50 = +++)
37 | 63 (KLLPMVIQL; listed as Homo sapiens) [compound 63] | +++ (≥50 = +++)
38 | 64 (SLYAGSNNQV; listed as Homo sapiens) [compound 64] | ++ (≥20% = ++)
39 | 65 (SLSEKSPEV; listed as Homo sapiens) [compound 65] | ++ (≥20% = ++)
40 | 67 (FLIENLLAA; listed as Homo sapiens) [compound 67] | +++ (≥50 = +++)
41 | 70 (GLTEKTVLV; listed as Homo sapiens) [compound 70] | ++ (≥20% = ++)
42 | 75 (ALLDGALQL; listed as Homo sapiens) [compound 75] | +++ (≥50 = +++)
43 | 80 (VLTGQVHEL; listed as Homo sapiens) [compound 80] | +++ (≥50 = +++)
44 | 81 (ILAEEPIYI; listed as Homo sapiens) [compound 81] | ++ (≥20% = ++)
45 | 83 (GLLENSPHL; listed as Homo sapiens) [compound 83] | ++ (≥20% = ++)
46 | 84 (FLLEREQLL; listed as Homo sapiens) [compound 84] | ++++ (≥75% = ++++)
47 | 86 (SLFSNIESV; listed as Homo sapiens) [compound 86] | +++ (≥50 = +++)
48 | 92 (RLFEEVLGV; listed as Homo sapiens) [compound 92] | ++++ (≥75% = ++++)
49 | 99 (TLFGIQLTEA; listed as Homo sapiens) [compound 99] | +++ (≥50 = +++)
50 | 100 (ALQSFEFRV; listed as Homo sapiens) [compound 100] | +++ (≥50 = +++)
51 | 107 (RVLPGQAVTGV; listed as Homo sapiens) [compound 107] | ++ (≥20% = ++)
52 | 108 (FIANLPPELKA; listed as Homo sapiens) [compound 108] | +++ (≥50 = +++)
